Source: publication PMC3816987

Assays:
[1] = target: GST fusion protein of Tulp1-N (1M-298Q) (mouse) (UniProt Q9Z273); assay: phage binding assay
[2] = target: GST-free tubby-N (tubby N-terminus, 1M-242P) (mouse) (UniProt P50586); assay: phage binding assay
Sequence of GST-free tubby-N (tubby N-terminus, 1M-242P) (mouse) (P50586 1-242): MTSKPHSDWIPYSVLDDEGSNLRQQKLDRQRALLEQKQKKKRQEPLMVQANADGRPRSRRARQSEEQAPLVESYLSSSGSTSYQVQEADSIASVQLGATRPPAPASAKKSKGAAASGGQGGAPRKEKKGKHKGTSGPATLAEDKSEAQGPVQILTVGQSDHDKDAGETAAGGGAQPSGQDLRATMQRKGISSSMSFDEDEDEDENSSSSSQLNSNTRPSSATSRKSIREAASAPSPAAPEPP

Sequence of GST fusion protein of Tulp1-N (1M-298Q) (mouse) (Q9Z273 1-298): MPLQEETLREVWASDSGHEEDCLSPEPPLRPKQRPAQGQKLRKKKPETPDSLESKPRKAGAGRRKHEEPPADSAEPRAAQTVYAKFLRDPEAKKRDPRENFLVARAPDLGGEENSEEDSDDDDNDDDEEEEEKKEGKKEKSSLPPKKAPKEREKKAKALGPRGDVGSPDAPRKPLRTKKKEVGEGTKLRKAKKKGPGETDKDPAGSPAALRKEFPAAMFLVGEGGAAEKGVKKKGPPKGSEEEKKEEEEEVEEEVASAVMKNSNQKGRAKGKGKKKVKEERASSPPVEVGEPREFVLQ
Sequence of Structure specific recognition protein 1 (Ssrp1) phage clone, 486E-619G (Q08943 2-708): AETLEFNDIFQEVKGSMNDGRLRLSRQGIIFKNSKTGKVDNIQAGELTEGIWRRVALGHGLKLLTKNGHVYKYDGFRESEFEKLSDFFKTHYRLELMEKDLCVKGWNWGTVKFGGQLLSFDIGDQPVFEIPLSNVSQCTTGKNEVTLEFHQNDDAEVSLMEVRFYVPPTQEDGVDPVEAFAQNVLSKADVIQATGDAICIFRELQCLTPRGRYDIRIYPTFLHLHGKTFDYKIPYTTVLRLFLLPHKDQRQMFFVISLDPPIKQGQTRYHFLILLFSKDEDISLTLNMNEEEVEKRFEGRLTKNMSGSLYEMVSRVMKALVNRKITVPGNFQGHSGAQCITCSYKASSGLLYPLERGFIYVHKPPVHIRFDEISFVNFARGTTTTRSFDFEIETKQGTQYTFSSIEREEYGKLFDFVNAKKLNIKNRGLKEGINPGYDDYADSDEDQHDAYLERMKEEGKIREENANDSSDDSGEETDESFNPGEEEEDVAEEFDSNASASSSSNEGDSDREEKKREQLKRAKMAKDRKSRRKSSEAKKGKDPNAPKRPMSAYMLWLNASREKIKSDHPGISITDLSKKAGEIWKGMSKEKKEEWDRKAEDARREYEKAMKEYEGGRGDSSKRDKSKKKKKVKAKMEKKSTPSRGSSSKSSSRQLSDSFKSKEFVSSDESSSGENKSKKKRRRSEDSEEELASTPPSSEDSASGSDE
Sequence of Zinc finger E-box binding homeobox 1 (Zeb1) phage clone, 903E-1021E (Q64318 whole entry, the tested form may be a part): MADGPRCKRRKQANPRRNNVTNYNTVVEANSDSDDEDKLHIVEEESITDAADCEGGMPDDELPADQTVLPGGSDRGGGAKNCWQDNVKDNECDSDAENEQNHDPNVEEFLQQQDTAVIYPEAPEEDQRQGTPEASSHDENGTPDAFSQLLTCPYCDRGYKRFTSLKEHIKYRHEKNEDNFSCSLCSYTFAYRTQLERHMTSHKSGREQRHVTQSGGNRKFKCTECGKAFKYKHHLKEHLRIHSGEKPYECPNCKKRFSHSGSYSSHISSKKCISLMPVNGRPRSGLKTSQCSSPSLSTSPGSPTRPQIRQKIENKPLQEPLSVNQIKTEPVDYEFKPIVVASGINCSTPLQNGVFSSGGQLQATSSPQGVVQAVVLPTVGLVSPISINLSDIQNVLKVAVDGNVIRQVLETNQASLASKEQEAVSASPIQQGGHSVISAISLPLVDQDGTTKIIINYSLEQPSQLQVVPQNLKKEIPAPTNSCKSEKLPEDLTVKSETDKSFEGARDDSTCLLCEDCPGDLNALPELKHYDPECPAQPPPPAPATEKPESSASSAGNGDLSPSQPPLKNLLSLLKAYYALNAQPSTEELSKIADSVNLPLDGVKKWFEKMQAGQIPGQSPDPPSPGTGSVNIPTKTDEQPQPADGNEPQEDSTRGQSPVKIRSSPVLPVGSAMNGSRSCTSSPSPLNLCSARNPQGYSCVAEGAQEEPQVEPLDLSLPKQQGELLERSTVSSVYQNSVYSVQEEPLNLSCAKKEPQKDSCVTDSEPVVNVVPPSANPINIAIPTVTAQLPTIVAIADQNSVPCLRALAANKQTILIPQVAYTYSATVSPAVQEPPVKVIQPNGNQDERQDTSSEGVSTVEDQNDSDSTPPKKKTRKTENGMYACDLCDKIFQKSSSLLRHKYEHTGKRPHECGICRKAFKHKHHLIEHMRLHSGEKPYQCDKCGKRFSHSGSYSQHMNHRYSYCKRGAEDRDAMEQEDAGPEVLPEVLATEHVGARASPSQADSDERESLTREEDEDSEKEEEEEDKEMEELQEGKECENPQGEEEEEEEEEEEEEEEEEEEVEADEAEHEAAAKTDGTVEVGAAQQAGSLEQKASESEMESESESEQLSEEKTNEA
Sequence of ATP-binding cassette F1 (Abcf1) phage clone, 57K-196G (Q6P542 whole entry, the tested form may be a part): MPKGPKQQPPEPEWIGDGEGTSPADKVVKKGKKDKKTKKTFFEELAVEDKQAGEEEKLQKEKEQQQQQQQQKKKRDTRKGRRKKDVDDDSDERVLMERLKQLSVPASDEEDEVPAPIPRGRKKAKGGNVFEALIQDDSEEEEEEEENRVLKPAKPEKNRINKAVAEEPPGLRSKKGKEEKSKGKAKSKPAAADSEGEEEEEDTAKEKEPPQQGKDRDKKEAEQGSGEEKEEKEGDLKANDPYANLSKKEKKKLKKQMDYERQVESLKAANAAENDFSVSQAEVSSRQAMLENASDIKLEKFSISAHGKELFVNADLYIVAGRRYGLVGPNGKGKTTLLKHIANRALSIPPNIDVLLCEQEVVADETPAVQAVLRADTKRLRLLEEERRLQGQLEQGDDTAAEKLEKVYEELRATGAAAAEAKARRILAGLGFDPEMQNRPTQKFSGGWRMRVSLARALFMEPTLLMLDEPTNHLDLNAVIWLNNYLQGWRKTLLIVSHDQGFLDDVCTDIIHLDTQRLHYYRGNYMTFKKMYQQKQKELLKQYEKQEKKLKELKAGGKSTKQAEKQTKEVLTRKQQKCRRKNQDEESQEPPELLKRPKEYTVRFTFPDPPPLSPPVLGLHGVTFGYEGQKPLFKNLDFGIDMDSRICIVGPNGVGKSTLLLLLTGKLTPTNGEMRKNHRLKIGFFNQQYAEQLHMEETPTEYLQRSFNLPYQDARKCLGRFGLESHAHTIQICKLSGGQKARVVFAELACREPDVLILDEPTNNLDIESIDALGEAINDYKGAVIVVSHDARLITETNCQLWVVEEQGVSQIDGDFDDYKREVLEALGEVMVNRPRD
Sequence of High mobility group (Hmg) box 2 (Hmgb2) phage clone, 89K-188E (P30681 whole entry, the tested form may be a part): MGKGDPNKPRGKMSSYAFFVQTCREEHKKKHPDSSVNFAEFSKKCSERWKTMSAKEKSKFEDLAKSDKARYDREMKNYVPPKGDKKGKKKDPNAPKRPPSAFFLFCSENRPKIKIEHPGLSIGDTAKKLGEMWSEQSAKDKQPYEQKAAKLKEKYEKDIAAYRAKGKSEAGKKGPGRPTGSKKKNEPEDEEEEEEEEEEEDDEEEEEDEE
Sequence of Hmg. nucleosomal binding domain 1 (Hmgn1) phage clone, 1M-49K (P18608 2-96): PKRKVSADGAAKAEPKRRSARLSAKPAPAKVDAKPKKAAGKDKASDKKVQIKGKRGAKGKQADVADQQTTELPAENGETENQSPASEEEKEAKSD
Sequence of Zinc finger protein 609 (Zfp609) phage clone, 1M-183E (domain or fragment) (Q8BZ47 whole entry, the tested form may be a part): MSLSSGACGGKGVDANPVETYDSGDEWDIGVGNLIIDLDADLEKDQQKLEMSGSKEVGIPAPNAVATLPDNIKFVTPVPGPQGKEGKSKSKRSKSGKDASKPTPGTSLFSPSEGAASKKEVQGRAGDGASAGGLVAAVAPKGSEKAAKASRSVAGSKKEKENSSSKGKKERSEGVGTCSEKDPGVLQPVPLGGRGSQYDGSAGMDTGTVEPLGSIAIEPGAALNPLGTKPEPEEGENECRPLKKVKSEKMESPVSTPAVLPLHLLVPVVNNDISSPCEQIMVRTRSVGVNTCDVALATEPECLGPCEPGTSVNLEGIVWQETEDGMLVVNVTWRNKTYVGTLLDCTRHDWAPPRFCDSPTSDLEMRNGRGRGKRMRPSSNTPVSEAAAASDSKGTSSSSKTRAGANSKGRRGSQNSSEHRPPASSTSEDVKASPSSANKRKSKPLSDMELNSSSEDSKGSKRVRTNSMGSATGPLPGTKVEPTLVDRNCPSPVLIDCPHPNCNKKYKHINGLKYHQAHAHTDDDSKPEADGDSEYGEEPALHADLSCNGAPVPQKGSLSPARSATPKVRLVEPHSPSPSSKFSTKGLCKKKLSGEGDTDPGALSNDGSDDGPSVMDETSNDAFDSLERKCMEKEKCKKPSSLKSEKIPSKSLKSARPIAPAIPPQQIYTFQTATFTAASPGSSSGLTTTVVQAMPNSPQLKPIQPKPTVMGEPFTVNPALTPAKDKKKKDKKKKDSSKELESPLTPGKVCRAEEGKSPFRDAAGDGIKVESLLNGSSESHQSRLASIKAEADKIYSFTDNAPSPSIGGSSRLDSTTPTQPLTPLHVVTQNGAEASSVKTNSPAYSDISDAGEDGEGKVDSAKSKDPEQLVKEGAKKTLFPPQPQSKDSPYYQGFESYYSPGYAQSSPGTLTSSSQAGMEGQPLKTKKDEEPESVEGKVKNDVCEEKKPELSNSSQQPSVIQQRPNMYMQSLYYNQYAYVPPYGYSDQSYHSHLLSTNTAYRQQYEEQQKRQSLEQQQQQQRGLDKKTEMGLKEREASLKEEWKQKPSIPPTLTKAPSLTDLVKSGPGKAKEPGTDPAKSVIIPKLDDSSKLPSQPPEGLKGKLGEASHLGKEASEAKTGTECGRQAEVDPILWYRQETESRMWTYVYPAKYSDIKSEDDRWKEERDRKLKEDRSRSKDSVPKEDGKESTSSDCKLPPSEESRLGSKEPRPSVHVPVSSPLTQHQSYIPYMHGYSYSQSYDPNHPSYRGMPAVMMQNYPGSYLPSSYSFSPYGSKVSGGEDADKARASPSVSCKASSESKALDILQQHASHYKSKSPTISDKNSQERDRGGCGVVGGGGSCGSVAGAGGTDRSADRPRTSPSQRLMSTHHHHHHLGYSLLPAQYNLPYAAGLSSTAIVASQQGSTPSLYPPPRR

## High mobility group (Hmg) box 2 (Hmgb2) phage clone, 89K-188E (from UniProt P30681 89-188) (domain or fragment)
[1]
  binding specificity, clonal phage vs. control phage: 55.2 X
[2]
  binding specificity, clonal phage vs. control phage: 312 X

## ATP-binding cassette F1 (Abcf1) phage clone, 57K-196G (from UniProt Q6P542 57-196) (domain or fragment)
[1]
  binding specificity, clonal phage vs. control phage: 33.4 X
[2]
  binding specificity, clonal phage vs. control phage: 68.2 X

## Armadillo repeat containing, X-linked 4 phage clone, 419S-587N (domain or fragment)
[2]
  binding specificity, clonal phage vs. control phage: 40.1 X

## Zinc finger E-box binding homeobox 1 (Zeb1) phage clone, 903E-1021E (from UniProt Q64318 903-1021) (domain or fragment)
[1]
  binding specificity, clonal phage vs. control phage: 56.7 X
[2]
  binding specificity, clonal phage vs. control phage: 284 X

## Structure specific recognition protein 1 (Ssrp1) phage clone, 486E-619G (from UniProt Q08943-1 486-619) (domain or fragment)
[1]
  binding specificity, clonal phage vs. control phage: 39.7 X
[2]
  binding specificity, clonal phage vs. control phage: 157 X

## Zinc finger protein 609 (Zfp609) phage clone, 1M-183E (domain or fragment)
[2]
  binding specificity, clonal phage vs. control phage: 53.2 X

## Hmg. box 2-like 1 (Hmgb2l1) phage clone, 170K-305G (domain or fragment)
[2]
  binding specificity, clonal phage vs. control phage: 29.8 X

## Microtubule-associated protein 7 (Mtap7) phage clone, 23A-114R (from UniProt O88735 23-114) (domain or fragment)
[2]
  binding specificity, clonal phage vs. control phage: 3.5 X

## PC4 and SFRS1 interacting protein 1 (Psip1) phage clone, 152K-219K (from UniProt Q99JF8-1 152-219) (domain or fragment)
[1]
  binding specificity, clonal phage vs. control phage: 24.1 X
[2]
  binding specificity, clonal phage vs. control phage: 196 X

## Hmg. nucleosomal binding domain 1 (Hmgn1) phage clone, 1M-49K (from UniProt P18608 1-49) (domain or fragment)
[2]
  binding specificity, clonal phage vs. control phage: 61.4 X
